Laboratory results taken from US20260217779A1 (Chugai, published 2026).
Numbering of substitutions follows the chain as printed. Names may count otherwise.

B1: hCXCL11.0010-G1T4k.one//VHn-G1T4h.one.H435R (Fc fusion)
chain 1: FKMFKRGRCLCIGPGVKAVKVADIEKASIMYPSNNCDKIEVIITLKENKGQRCLNPKSKQARLIIKKVERKNFEPKSSDKTHTCPPCPAPELRRGPSVFLFPPKPKDTLMISRTPEVTCVVVDVSHEDPEVKFNWYVDGVEVHNAKTKPREEQYNSTYRVVSVLTVLHQDWLNGKEYKCKVSNKGLPSSIEKTISKAKGQPREPQVCTLPPSREEMTKNQVSLWCLVKGFYPSDIAVEWESNGQPENNYKTTPPVLDSDGSFFLYSKLTVDKSRWQEGNVFSCSVMHEALHNHYTQKSLSLSP
chain 2: EPKSSDKTHTCPPCPAPELRRGPSVFLFPPKPKDTLMISRTPEVTCVVVDVSHEDPEVKFNWYVDGVEVHNAKTKPREEQYNSTYRVVSVLTVLHQDWLNGKEYKCKVSNKGLPSSIEKTISKAKGQPREPQVYTLPPSRCEMTKNQVSLSCAVKGFYPSDIAVEWESNGQPENNYKTTPPVLDSDGSFFLVSKLTVDKSRWQEGNVFSCSVMHEALHNRYTQKSLSLSP
B2: hCXCL11.0021-G1T4k.one//VHn-G1T4h.one.H435R (Fc fusion)
chain 1: AFPMFKRGRCLCIGPGVKAVKVADIEKASIMYPSNNCDKIEVIITLKENKGQRCLNPKSKQARLIIKKVERKNFEPKSSDKTHTCPPCPAPELRRGPSVFLFPPKPKDTLMISRTPEVTCVVVDVSHEDPEVKFNWYVDGVEVHNAKTKPREEQYNSTYRVVSVLTVLHQDWLNGKEYKCKVSNKGLPSSIEKTISKAKGQPREPQVCTLPPSREEMTKNQVSLWCLVKGFYPSDIAVEWESNGQPENNYKTTPPVLDSDGSFFLYSKLTVDKSRWQEGNVFSCSVMHEALHNHYTQKSLSLSP
chain 2: B1 chain 2
B3: hCXCL11.0018-G1T4k.one//VHn-G1T4h.one.H435R (Fc fusion)
chain 1: B1 chain 1 with K2V
chain 2: B1 chain 2
B4: hCXCL11.0012-G1T4k.one//VHn-G1T4h.one.H435R (Fc fusion)
chain 1: B1 chain 1 with K2M
chain 2: B1 chain 2
B5: hCXCL11.0020-G1T4k.one//VHn-G1T4h.one.H435R (Fc fusion)
chain 1: B1 chain 1 with K2Y
chain 2: B1 chain 2
B6: hCXCL11.0015-G1T4k.one//VHn-G1T4h.one.H435R (Fc fusion)
chain 1: B1 chain 1 with K2R
chain 2: B1 chain 2
B7: hCXCL11.0031-G1T4k.one//VHn-G1T4h.one.H435R (Fc fusion)
chain 1: B2 chain 1 with A1N
chain 2: B1 chain 2
B8: hCXCL11.0030-G1T4k.one//VHn-G1T4h.one.H435R (Fc fusion)
chain 1: B2 chain 1 with A1M
chain 2: B1 chain 2
B9: hCXCL11.0024-G1T4k.one//VHn-G1T4h.one.H435R (Fc fusion)
chain 1: B2 chain 1 with A1F
chain 2: B1 chain 2
B10: hCXCL11.0014-G1T4k.one//VHn-G1T4h.one.H435R (Fc fusion)
chain 1: B1 chain 1 with K2Q
chain 2: B1 chain 2
B11: hCXCL11.0026-G1T4k.one//VHn-G1T4h.one.H435R (Fc fusion)
chain 1: B2 chain 1 with A1H
chain 2: B1 chain 2
B12: hCXCL11.0016-G1T4k.one//VHn-G1T4h.one.H435R (Fc fusion)
chain 1: B1 chain 1 with K2S
chain 2: B1 chain 2
B13: hCXCL11.0022-G1T4k.one//VHn-G1T4h.one.H435R (Fc fusion)
chain 1: B2 chain 1 with A1D
chain 2: B1 chain 2
B14: hCXCL11.0019-G1T4k.one//VHn-G1T4h.one.H435R (Fc fusion)
chain 1: B1 chain 1 with K2W
chain 2: B1 chain 2
B15: hCXCL11.0013-G1T4k.one//VHn-G1T4h.one.H435R (Fc fusion)
chain 1: B1 chain 1 with K2N
chain 2: B1 chain 2
B16: hCXCL11.0028-G1T4k.one//VHn-G1T4h.one.H435R (Fc fusion)
chain 1: B2 chain 1 with A1K
chain 2: B1 chain 2
B17: hCXCL11.0027-G1T4k.one//VHn-G1T4h.one.H435R (Fc fusion)
chain 1: B2 chain 1 with A1I
chain 2: B1 chain 2
B18: hCXCL11.0017-G1T4k.one//VHn-G1T4h.one.H435R (Fc fusion)
chain 1: B1 chain 1 with K2T
chain 2: B1 chain 2
B19: hCXCL11.0029-G1T4k.one//VHn-G1T4h.one.H435R (Fc fusion)
chain 1: B2 chain 1 with A1L
chain 2: B1 chain 2
B20: hCXCL11.0011-G1T4k.one//VHn-G1T4h.one.H435R (Fc fusion)
chain 1: B1 chain 1 with K2L
chain 2: B1 chain 2
B21: hCXCL11.0023-G1T4k.one//VHn-G1T4h.one.H435R (Fc fusion)
chain 1: B2 chain 1 with A1E
chain 2: B1 chain 2

Molecular target: T1, human CXCR3 (hCXCR3) on Ba/F3 transfectant cells (human, UniProt P49682 1-368)
T1 sequence: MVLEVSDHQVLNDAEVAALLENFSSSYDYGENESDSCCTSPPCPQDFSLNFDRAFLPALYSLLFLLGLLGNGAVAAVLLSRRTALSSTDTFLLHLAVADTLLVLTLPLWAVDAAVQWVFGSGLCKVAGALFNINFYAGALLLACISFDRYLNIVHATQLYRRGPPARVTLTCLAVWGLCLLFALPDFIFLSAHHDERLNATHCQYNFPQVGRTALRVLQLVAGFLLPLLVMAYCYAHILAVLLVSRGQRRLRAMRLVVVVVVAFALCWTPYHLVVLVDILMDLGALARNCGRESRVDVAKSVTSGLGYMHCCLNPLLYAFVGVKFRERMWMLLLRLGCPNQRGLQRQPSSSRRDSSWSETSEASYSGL
Assay: cell-based or functional assay

Row | Binder | Activity retention rate at 33 nM [%] | Activity retention rate at 100 nM [%] | Activity retention rate at 300 nM [%] | Luminescence value at 33 nM | Luminescence value at 100 nM | Luminescence value at 300 nM
1 | B1 | 7 | 30 | 63 | 524000 | 4.93e+06 | 7.78e+06
2 | B2 | 108 | 93 | 84 | 8.26e+06 | 1.56e+07 | 1.04e+07
3 | B3 | 24 | 50 | 81 | 1.85e+06 | 8.32e+06 | 1.01e+07
4 | B4 | 17 | 46 | 95 | 1.33e+06 | 7.6e+06 | 1.18e+07
5 | B5 | 28 | 62 | 95 | 2.15e+06 | 1.03e+07 | 1.18e+07
6 | B6 | 34 | 73 | 98 | 2.62e+06 | 1.23e+07 | 1.22e+07
7 | B7 | 165 | 90 | 51 | 1.27e+07 | 1.51e+07 | 6.39e+06
8 | B8 | 114 | 98 | 86 | 8.75e+06 | 1.64e+07 | 1.06e+07
9 | B9 | 32 | 72 | 105 | 2.47e+06 | 1.2e+07 | 1.31e+07
10 | B10 | 105 | 89 | 60 | 8.07e+06 | 1.48e+07 | 7.51e+06
11 | B11 | 71 | 77 | 80 | 5.46e+06 | 1.29e+07 | 9.92e+06
12 | B12 | 65 | 75 | 69 | 4.95e+06 | 1.25e+07 | 8.57e+06
13 | B13 | 178 | 89 | 49 | 1.37e+07 | 1.48e+07 | 6.06e+06
14 | B14 | 4 | 28 | 93 | 325000 | 4.66e+06 | 1.15e+07
15 | B15 | 71 | 78 | 81 | 5.49e+06 | 1.31e+07 | 1.01e+07
16 | B16 | 26 | 53 | 90 | 2e+06 | 8.87e+06 | 1.11e+07
17 | B17 | 67 | 100 | 102 | 5.18e+06 | 1.67e+07 | 1.27e+07
18 | B18 | 61 | 74 | 69 | 4.72e+06 | 1.24e+07 | 8.54e+06
19 | B19 | 53 | 92 | 108 | 4.07e+06 | 1.54e+07 | 1.34e+07
20 | B20 | 3 | 24 | 77 | 262000 | 4.02e+06 | 9.6e+06
21 | B21 | 189 | 98 | 48 | 1.45e+07 | 1.64e+07 | 5.98e+06
